According to US20090053745A1 (RUTGERS THE STATE UNIVERSITY OF NEW JERSEY, published 2009):

T1: cypin (endogenous, rat brain extract) (rat, UniProt Q9WTT6 1-454)
T1 sequence (looked up): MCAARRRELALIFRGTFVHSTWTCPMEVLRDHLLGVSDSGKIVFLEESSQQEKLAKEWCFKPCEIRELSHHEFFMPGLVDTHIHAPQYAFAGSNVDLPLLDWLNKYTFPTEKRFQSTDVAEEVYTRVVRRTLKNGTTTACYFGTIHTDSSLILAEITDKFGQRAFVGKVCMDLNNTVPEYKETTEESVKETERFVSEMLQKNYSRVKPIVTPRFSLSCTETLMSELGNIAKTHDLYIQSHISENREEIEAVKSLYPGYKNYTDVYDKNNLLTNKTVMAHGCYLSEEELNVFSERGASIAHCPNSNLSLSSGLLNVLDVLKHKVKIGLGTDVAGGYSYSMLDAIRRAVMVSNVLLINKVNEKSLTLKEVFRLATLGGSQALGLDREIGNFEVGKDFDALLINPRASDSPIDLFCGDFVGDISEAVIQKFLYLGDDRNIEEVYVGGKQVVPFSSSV

T2: GST-cypin (UniProt Q9WTT6 1-454)
T2 construct: Expressed in E. coli, purified on glutathione sepharose, eluted with glutathione and dialysed; No removal of GST is reported; also called purified cypin; not shown: glutathione S-transferase (GST) fusion partner
T2 sequence (looked up): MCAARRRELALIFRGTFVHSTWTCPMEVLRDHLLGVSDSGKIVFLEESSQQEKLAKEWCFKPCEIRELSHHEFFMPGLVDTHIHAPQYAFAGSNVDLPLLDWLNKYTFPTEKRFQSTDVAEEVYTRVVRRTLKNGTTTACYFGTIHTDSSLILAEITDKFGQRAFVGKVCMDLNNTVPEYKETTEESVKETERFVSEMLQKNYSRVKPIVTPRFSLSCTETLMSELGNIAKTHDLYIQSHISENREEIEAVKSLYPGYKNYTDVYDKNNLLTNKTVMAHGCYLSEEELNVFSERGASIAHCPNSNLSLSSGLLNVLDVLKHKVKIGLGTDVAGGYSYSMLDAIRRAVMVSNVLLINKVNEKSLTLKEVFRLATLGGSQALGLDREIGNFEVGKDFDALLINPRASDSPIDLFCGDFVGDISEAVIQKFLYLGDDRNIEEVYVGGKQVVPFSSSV


Experiments:
[1] = molecular target: T1, cypin (endogenous, rat brain extract); assay: GST affinity chromatography with rat brain extract
Description: COS-7 cells were transfected with either pEGFP-C1-snapin, pDsRed-N1-snapin, pEGFP-C1-cypin or pDsRed-N1-cypin using Lipofectamine 2000 (Invitrogen, Carlsbad, Calif.) as described by manufacturer. Cells were washed with cold PBSE (phosphate buffered saline and 1 mM EDTA) and scraped into 5 mL of TEEN (25 mM Tris-HCl, pH 7.4, 1 mM EDTA, 1 mM EGTA, 100 mM NaCl). Cells were homogenized using a Potter-Elvehjem tissue grinder (20 strokes). Phenylmethylsulfonyl fluoride and DTT were added to lysates to final concentrations of 1 mM and cells were further lysed by passing the extract through a 25 gauge needle 5 times. Lysates were centrifuged at 12,000×g for 10 minutes at 4° C. Triton X-100 was added to the supernatant to a final concentration of 1% and incubated at 4° C. for 30 minutes. Lysates were centrifuged at 12,000×g for 10 minutes at 4° C. COS-7 cell lysates were incubated with glutathione-sepharose beads bound to 25 μg of the appropriate GST-fusion proteins for 1 hour at 4° C. Beads were washed three times with TEEN. Bound proteins were eluted with 0.5% SDS and 100 mM NaCl. Proteins were resolved on a 10% SDS polyacrylamide gel and transferred to PVDF membrane. Blots were probed with the indicated antibodies. For experiments using rat brain extracts, the extracts were prepared exactly as described above except that they were not passed through a 25 gauge needle. […]

[2] = molecular target: T2, GST-cypin; assay: competition co-immunoprecipitation of purified cypin (2 µM) and tubulin heterodimers (7 µM); ligand to be displaced: tubulin heterodimers; strip labelled α-Tubulin on the sheet
Description: GST, GST-cypin, and GST-snapin were expressed in E. coli and purified using glutathione sepharose as previously described (Firestein et al., 1999). Purified proteins were eluted from the beads using glutathione and dialyzed against phosphate buffered saline. Purified cypin (2 μM) and the indicated concentrations of purified snapin were mixed with tubulin heterodimers (7 μM) in PEM buffer (80 mM PIPES, pH 6.9, 2 mM MgCl₂, 0.5 mM EGTA) containing 5% glycerol for 4-6 hours at 4° C. The mixtures were subjected to immunoprecipitation using a monoclonal antibody raised against tubulin. Binding of purified proteins was assayed by SDS-PAGE followed by Western blotting using a rabbit polyclonal antibody raised against cypin (Akum et al., 2004).
Since snapin binds to cypin's CRMP homology domain, which is responsible for binding tubulin heterodimers (Akum et al., 2004), it is possible that snapin could compete tubulin binding to cypin. To address this question, co-immunoprecipitation of purified cypin and tubulin heterodimers in the presence of full-length snapin or the N-terminal half of snapin (amino acids 1-68) was performed. No association of snapin with tubulin heterodimers by co-immunoprecipitation or affinity chromatography was found in the previous experiments (data not shown). […]

[3] = molecular target: PSD-95 (endogenous, rat brain extract) (rat, UniProt P31016 1-724, limits assumed); assay: co-immunoprecipitation from rat brain extract with anti-snapin
Sequence of PSD-95 (endogenous, rat brain extract) (P31016 whole entry): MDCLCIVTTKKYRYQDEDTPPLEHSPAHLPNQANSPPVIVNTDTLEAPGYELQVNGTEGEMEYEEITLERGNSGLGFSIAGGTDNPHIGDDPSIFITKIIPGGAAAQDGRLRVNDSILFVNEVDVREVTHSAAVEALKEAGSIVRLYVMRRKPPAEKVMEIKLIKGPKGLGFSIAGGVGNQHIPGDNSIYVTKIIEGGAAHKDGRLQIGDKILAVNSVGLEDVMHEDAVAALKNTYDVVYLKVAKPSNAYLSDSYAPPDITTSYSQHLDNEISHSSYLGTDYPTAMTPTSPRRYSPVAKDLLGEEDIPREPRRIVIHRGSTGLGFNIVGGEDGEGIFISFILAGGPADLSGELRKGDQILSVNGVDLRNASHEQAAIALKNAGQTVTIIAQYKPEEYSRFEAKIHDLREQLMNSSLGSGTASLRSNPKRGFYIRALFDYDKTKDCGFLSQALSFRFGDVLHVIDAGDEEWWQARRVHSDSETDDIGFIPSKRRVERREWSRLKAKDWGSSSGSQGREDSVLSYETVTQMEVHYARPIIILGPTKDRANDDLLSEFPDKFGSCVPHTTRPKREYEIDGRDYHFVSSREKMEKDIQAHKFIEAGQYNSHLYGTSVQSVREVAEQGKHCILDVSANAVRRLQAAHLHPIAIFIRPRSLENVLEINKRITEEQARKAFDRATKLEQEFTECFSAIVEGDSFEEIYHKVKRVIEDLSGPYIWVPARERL
Description: (§1) For co-immunoprecipitation studies, one rat brain was homogenized in 10 ml of TEE (25 mM Tris, 1 mM EGTA, 1 mM EDTA)+1 mM PMSF. Triton X-100 was added to a final concentration of 1% and proteins were extracted for 1 hour at 4° C. The extract was centrifuged at 12,000×g to remove insoluble material and the supernatant was incubated with either anti-cypin, anti-snapin, preimmune serum, rabbit IgG, anti-tubulin, or mouse IgG. Protein A beads were added and after a 1 hour incubation, the beads were washed with TEE+0.2% Triton X-100. Immunoprecipitated proteins were eluted with protein loading buffer and resolved by SDS-PAGE and transferred to PVDF membrane. Blots were probed with the indicated antibodies. Experiments were performed in duplicate or triplicate.

[4] = molecular target: SNAP-25 (endogenous, rat brain extract) (rat, UniProt P60881 1-206); assay: as above
Sequence of SNAP-25 (endogenous, rat brain extract) (P60881 whole entry): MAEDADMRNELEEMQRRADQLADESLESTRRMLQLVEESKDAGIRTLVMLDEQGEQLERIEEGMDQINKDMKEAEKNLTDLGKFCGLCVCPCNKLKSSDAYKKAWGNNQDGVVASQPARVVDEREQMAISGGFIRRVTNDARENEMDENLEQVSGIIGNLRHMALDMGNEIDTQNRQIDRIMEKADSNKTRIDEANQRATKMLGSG
Description: as §1

Binder | binding result [1] | binding result [2] | binding result [3] | binding result [4]
GST-snapin (first 68 amino acids) (other, also called snapin(1-68); N-terminal half of snapin; not shown: glutathione S-transferase (GST) fusion partner) MAGAGSAAVSGAGTPVAGPTGRDLFAEGLLEFLRPAVQQLDSHVHAVRESQVELREQIDNLATELCRI | no binding | no binding (tested: 4 µM) | – | –
snapin (endogenous, rat brain extract) (other, UniProt P60192 2-136, looked up, The smaller band may be a degradation product or a modified snapin) AAAGSAAVSGAGTPVAGPTGRDLFAEGLLEFLRPAVQQLDSHVHAVRESQVELREQIDNLATELCRINEDQKVALDLDPYVKKLLNARRRVVLVNNILQNAQERLRRLNHSVAKETARRRAMLDSGVYPPGSPSK | – | – | no binding | no binding
